In paper PMC12712053 one finds stoichiometry N data, which are given here for 1 substance.

The target of test [1] is human Mre11 core (HsMre11c) (human). As to the kind of experiment: SEC.
For test [2] the target is unchanged. Kind of test: native gel or EMSA.

Take “human Mre11 core (HsMre11c) (domain or fragment)”: the stoichiometry N in test [1] and in test [2] was 2 throughout.
